In experiment [1] the target is T1, WAVE1 PRD[B] (human, UniProt Q92558 277-488, C296 | C407, Texas Red maleimide (KCK variants) or Alexa 546 maleimide (C variants) on the introduced cysteine). Put plainly: AUC; 2:1 binding model, Kd1 (fit).
The next experiment deals with WAVE1 PRD [Null] (human, UniProt Q92558 277-488, C296 | C407, Texas Red maleimide (KCK variants) or Alexa 546 maleimide (C variants) on the introduced cysteine). Put plainly: AUC.
In the next experiment the target is WAVE1 PRD[C] (human, UniProt Q92558 277-488, C296 | C407, Texas Red maleimide (KCK variants) or Alexa 546 maleimide (C variants) on the introduced cysteine). Put plainly: AUC.
The next experiment has as its target WAVE1 PRD[A] (human, UniProt Q92558 277-488, C296 | C407, Texas Red maleimide (KCK variants) or Alexa 546 maleimide (C variants) on the introduced cysteine). Put plainly: AUC.
Another experiment deals with WAVE1 PRD[F] (human, UniProt Q92558 277-488, C296 | C407, Texas Red maleimide (KCK variants) or Alexa 546 maleimide (C variants) on the introduced cysteine). Put plainly: AUC.
The target of experiment [2] is T1, WAVE1 PRD[B]. Put plainly: AUC.
The target of the next experiment is WAVE1 PRD[D] (human, UniProt Q92558 277-488, C296 | C407, Texas Red maleimide (KCK variants) or Alexa 546 maleimide (C variants) on the introduced cysteine). Put plainly: AUC.
The next experiment has as its target WAVE1 PRD[E] (human, UniProt Q92558 277-488, C296 | C407, Texas Red maleimide (KCK variants) or Alexa 546 maleimide (C variants) on the introduced cysteine). Put plainly: AUC.
Experiment [3] deals with Native, cytoplasmic actin from Acanthamoeba castellanii, monomeric (Acanthamoeba castellanii). Put plainly: FP.

T1 sequence (Q92558 other isoform, or with tags, fused parts or gaps, stated change not applied): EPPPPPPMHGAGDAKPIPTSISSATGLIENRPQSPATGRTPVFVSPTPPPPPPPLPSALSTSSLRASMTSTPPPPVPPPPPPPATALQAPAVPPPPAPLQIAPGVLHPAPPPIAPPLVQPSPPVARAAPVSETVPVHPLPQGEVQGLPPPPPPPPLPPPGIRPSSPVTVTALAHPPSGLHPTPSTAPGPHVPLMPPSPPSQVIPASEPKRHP
Chain of WAVE1 PRD[F] (Q92558 other isoform, or with tags, fused parts or gaps, change not shown): as the sequence (Q92558 other isoform, or with tags, fused parts or gaps, stated change not applied) above
Chain of WAVE1 PRD[E] (Q92558 other isoform, or with tags, fused parts or gaps, change not shown): as the sequence (Q92558 other isoform, or with tags, fused parts or gaps, stated change not applied) above
Chain of WAVE1 PRD[C] (Q92558 other isoform, or with tags, fused parts or gaps, change not shown): as the sequence (Q92558 other isoform, or with tags, fused parts or gaps, stated change not applied) above
Chain of WAVE1 PRD [Null] (Q92558 other isoform, or with tags, fused parts or gaps, change not shown): as the sequence (Q92558 other isoform, or with tags, fused parts or gaps, stated change not applied) above
Chain of WAVE1 PRD[A] (Q92558 other isoform, or with tags, fused parts or gaps, change not shown): as the sequence (Q92558 other isoform, or with tags, fused parts or gaps, stated change not applied) above
Chain of WAVE1 PRD[D] (Q92558 other isoform, or with tags, fused parts or gaps, change not shown): as the sequence (Q92558 other isoform, or with tags, fused parts or gaps, stated change not applied) above

B1: Mouse profilin 2a (natural protein)
chain: MAGWQSYVDNLMCDGCCQEAAIVGYCDAKYVWAATAGGVFQSITPVEIDMIVGKDREGFFTNGLTLGAKKCSVIRDSLYVDGDCTMDIRTKSQGGEPTYNVAVGRAGRVLVFVMGKEGVHGGGLNKKAYSMAKYLRDSGF
As for B1, the Kd with WAVE1 PRD[B] [1] came to 2.07 µM; with WAVE1 PRD [Null], 138 µM; with WAVE1 PRD[C], 12 µM; with WAVE1 PRD[A], 51 µM; with WAVE1 PRD[F], 4 µM; with WAVE1 PRD[B] [2], 2 µM. For the same molecule, the Kd with WAVE1 PRD[D] came out at 145 µM; with WAVE1 PRD[E], 182 µM.

B2: WAVE1 WCA, unlabeled, soluble (domain or fragment)
chain: STLPVISDARSVLLEAIRKGIQLRKVEEQREQEAKHERIENDVATILSRRIAVEYSDSEDDSEFDEVDWLE
B2 gave a Kd in [3] of 0.068 µM.

B3: Alexa488-labeled WAVE1 WCA (domain or fragment)
chain: SCLPVISDARSVLLEAIRKGIQLRKVEEQREQEAKHERIENDVATILSRRIAVEYSDSEDDSEFDEVDWLE
modifications: Alexa488-maleimide on Cys490
The molecule B3 displayed a Kd in experiment [3] of 0.029 µM.

The term Kd denotes the constant that tells how readily two partners part at equilibrium. A high value points to a looser complex.

(Values after PMC5753033 (2017).)
